Results from PMC9170038.

B1: Eterna 7614506 (Exclusion - Tryptophan A) (ssRNA)
RNA: UAUAUAUAUCACGAACUGUGGUGUAUGUCUCGAGGACCGGUACGGCCGCCACUCGCGCGGCCUCACAUGAGGAUCACCCAUGUUG
B2: Eterna 15484 (Exclusion 5) (ssRNA)
RNA: CUUUGAUGAGGAUAUCGAGGUUAGUACAUGAGGAUCACCCAUGUUAUCCAGGUGUCGGAUCGAGAAGGUAUUGGAC
B3: Eterna 7686162 (Exclusion - FMN A) (ssRNA)
RNA: UACAUAUAAUUAUUUCUACAUUUAUUUAGUCAGGAUAUCGAUUAAACGAGAAGGGACAAUAUCAAGUGAUGUUUGAUAAUUCAAA
B4: Eterna 6061522 (Exclusion 3) (ssRNA)
RNA: AAUUCGGCAGGAUAUACAUGAGGAUCACCCAUGUAAAUUUUUCGUUUAACUUGAAUGUGUAGAAGGGCCAUUUA
B5: Eterna 13502 (Sensor v3, turn-off variant 2) (ssRNA)
RNA: AGUAGAUCUACGCUUGCGUGGAUCUGCAAUGUAGGUGUUACAUGAGGAUCACCCAUGUCCUCAUUUGCUCGUCUUAG
B6: Eterna 1699 (Same State - Theophylline B) (ssRNA)
RNA: UCGCAUUAACCGGAUACCAGCUUAGUGGGAUCUUCAAUCCGACAGAAAGUGAUGUUUUCUAGCCCUUGGCAGCCGAGAUUAUCAC
B7: Eterna 11801 (Exclusion 2) (ssRNA)
RNA: AGUAACAGAGGAUAUACUGUUUUAUGUGUUUAUUAUUUUGAACAUGAGGAUCACCCAUGUAGAAGGCUGAAUAA
B8: Eterna 7742068 (Same State - Tryptophan B) (ssRNA)
RNA: AGUACAAUGGCGGCCGCCACUCAACGCAGAUCAAAGAUCUGCGUUCACUCAGUGAUGUUGAGUGAGAGGACCGGGCCUUUGUACA
B9: Eterna 7646211 (Same State - Theophylline A) (ssRNA)
RNA: CAUACUUUAGUAUGUAAUGUGGACAGUGAUACCAGAUACGAAAGUAUCCCUUGGCAGCACAACAUGAGGAUCACCCAUGUAUUUU
B10: Eterna 7684838 (Same State - Theophylline A) (ssRNA)
RNA: AAAUUUAAUAUAUUUAAAUAAAUAUGUGAUACCAGACAUUUAUAAGUCCCUUGGCAGCACAAUGCAGUGAUGUUGCUUAUAAUAA
B11: Eterna 5989570 (Sensor, turn-off variant 1) (ssRNA)
RNA: GUCAUCACACAUGGGAUCAACAUGAGGAUCACCCAUGUUGUCAAGUUUUUUGCUCGUCUUAUAAUACGUUUGAUGAC
B12: Eterna 6117727 (Exclusion NG 3) (ssRNA)
RNA: GGUUGUCAUAGUCAUCCUUUCCGUACAUGAGGAUCACCCAUGUAGGAUAUGCUACUCACAGUGUGGCAGAAGGGCGUGUGUCUU
B13: Eterna 7698835 (Same State - Arginine B) (ssRNA)
RNA: GCUAUGGUAGGAAGGAGCGCUUAUUUAUUUUUACGAGUGAUGUUCGGUAGUAGAUAGUUAAAGCAGGUAGGUCGCCUACUAUAGC
B14: Eterna 6430466 (Small Loop Same State NG 3) (ssRNA)
RNA: UUCGAGCCAAGGCUCGCGAGUACACAGGAUAUGGAAAGUCACAUGAGGAUCACCCAUGUCCAAAACCAGAAGGGUGAGACUAAG
B15: Eterna 7740606 (Exclusion - Theophylline A) (ssRNA)
RNA: AAGUCUCGUUAAUUCGAGGUUACGAUCGAUACCAGUAGCGAGAGGUACCCUUGGCAGCGAAGUGAGUGAUGUUCAUGAAAGAAGA
B16: Eterna 1186 (Exclusion - Theophylline B) (ssRNA)
RNA: GAUAGUUAGAGAGAUACCAGCGAUACCUAGAUGGAAAGUGAUGUUCGCCAUCAAUUGCACCGCCCUUGGCAGCUCUCUCUUUGCU
B17: Eterna 7691283 (Same State - Arginine B) (ssRNA)
RNA: AUUCUAUUGUGAAGGAGCGCGACUAGUAGUGAUGUUACUAUAUGACUUUAGUCUUAAUUCUCGCAGGUAGGUCGCACAAUAUAUA
B18: Eterna 1774 (Same State - Tryptophan B) (ssRNA)
RNA: CGAUCUUGGUCGGCCGCCACUACACCCACACCAAAUAGGAAAGUAGCGAGUGAUGUUUGUGACGUUAGGACCGGGACCACUGGUC
B19: Eterna 7727518 (Exclusion - Tryptophan B) (ssRNA)
RNA: GUUUUGGGAUCGGCCGCCACUACAUGAGGAUCACCCAUGUGGACAAAUAGGGUUUUUAAGCUCGGUAGGACCGGGAUUCGAACAU
B20: Eterna 7716240 (Exclusion - Theophylline B) (ssRNA)
RNA: GGUUUAUAAGAGGAUACCAGUACAAAUAAAGUACAUUAAUAGUAGAGUGAUGUUCUAAAGUACCCUUGGCAGCUUAGAUUAAGUU
B21: Eterna 9534 (Sensor v3, turn-off variant 2) (ssRNA)
RNA: GGUACUAUCACCUGAGUGGUAGUGCCAUAAGCUUGUGAUACAUGAGGAUCACCCAUGUCCUCAUUUGCUCGUCUUAU
B22: Eterna 7745506 (Same State - Arginine B) (ssRNA)
RNA: CCGGGCGGCCGAAGGAGCGGGCGGACCCGAGUGAUGUUCGGGUGGCCCGUGAGGGCCGGUGCCCAGGUAGGUCGCGGAUCCGCCC
B23: Eterna 6030125 (Exclusion 6) (ssRNA)
RNA: GUGCGUGGCUAGGAUAUUGUGGAGUUUUGUCAGCGAGAAGGAGCCACAUGAGGAUCACCCAUGUGGUGUUGCUC
B24: Eterna 6103763 (Same State NG 3) (ssRNA)
RNA: CAUUGACGACAAUUACAUGAGGAUCACCCAUGUUUUGGGAUGCAGGAUAUGUGGUAUAUUAAUUAACAGAAGGGCAAUAAUUUU
B25: Eterna 7700218 (Same State - Theophylline A) (ssRNA)
RNA: UGGUUAAGCAGUGAUGUUGCAAGUGAUGAUACCAGUUAAGAAGAGAACCCUUGGCAGCAUAAAGUGCGCUCUGAUGAGUGUGCUU
B26: Eterna 6120937 (Same State NG 1) (ssRNA)
RNA: GCCAUCACAUGAGGAUAUGGCACCGUUUCGGUGCCAGAAGGCAUGUCAUAAGACAUGAGGAUCACCCAUGUAGUUAAGAUGGCA
B27: Eterna 7739799 (Exclusion - Arginine A) (ssRNA)
RNA: CAGACCACAGAGUGAUGUUCUGUGUCCGAAGGAGCGCGCGAGAGCGCAGGUAGGUCGCGGAUACAGUUGACGUACCUUCAAGACA
B28: Eterna 6415900 (Inverted Small Loop Same State NG 3) (ssRNA)
RNA: UGCUACGUUUCGUAGCAGUGUCAUCGAGAAGGCCCUGACAUGAGGAUCACCCAUGUUGUUACAUGGGAGGAUAUCGAUGAUACA
B29: Eterna 6418068 (Inverted Exclusion NG 1) (ssRNA)
RNA: CGUGCUAUGUAGAAGGCAGAUCUGAUUCAGAUCUGAGGAUAUACAUGAGGAUCACCCAUGUUAUGCACCAGCACGAGAGUGCAC
B30: Eterna 1179 (Exclusion - Theophylline B) (ssRNA)
RNA: CACCCAGUCCUCGAUACCAGACUGGCACGUCAAAAGGUCCAGUGAUGUUGAGCCUAACAAGUCCCUUGGCAGCGACCAGUGUAUU
B31: Eterna 1729 (Same State - Tryptophan A) (ssRNA)
RNA: GGAGUCCCGUUAGAUUGUGUAGAUACAAGACGAGGACCGGUACGGCCGCCACUCGCCAUCGUCCAGUGAUGUUGGGCGUCACGGG
B32: Eterna 13336 (Sensor for hsa-mir-208a) (ssRNA)
RNA: AGUCCAGCCAGAGCUGGACAAAAGCAUGUACAUGAGGAUCACCCAUGUUCAUGUACAAGCUUUUUGCUCGUCUUAAA

Key:
[1] = test system: Tryptophan aptamer, RNA-MaP condition construct (RNA, aptamer) GGAAAGGCGAGCGGCCGCCACUGUUCGCAGGACCGGGCUCGCCAAAGAAACAACAACAACAAC; test: DMS chemical mapping; conditions: 80 mM KCl, 4 mM MgCl2; 100 mM Tris-HCl, pH 7.5, 37 °C
[2] = test system: Tryptophan aptamer, Light-up construct (RNA, aptamer) GGGAACGUCUCCGAGUAGGAGACGAAGGGAGAGUGGCAGCUUACAAACUACAGUUGCGGCCGCCACUGCGAAGGACGGGUCCCUCGAAAGAGGUUGAGUAGAGUGUGAGCGCAGGACCGGGCAACAGUAGUAAGUGGGCUGUUGCUUUUCCAAGCUUAUCGAGUAGAUAAGCAAAAAGAAACAACAACAACAAC; test: DMS chemical mapping; conditions: 5 mM MgCl2, 1x PBS, pH 6.1, 24 °C
[3] = test system: BH_E029 (RNA, aptamer) GGGAGAGUGGCAGCUUACAACGUAACGAUGCGGCCGCCACUGAUCCGACUGGUUAACAGAAAGUCCUGACCAGGUAACGAAUGGUCAGGACCGGGCAUUGUUACGAAGUGGGCUGUUGCUUUUCC; test: light-up fluorescence kinetics (malachite green); conditions: 5 mM MgCl2, 1x PBS, pH 6.1, 2.4 mM Trp with malachite green present
[4] = biological target: T1, MS2 coat protein, dlFG mutant (Escherichia phage MS2, UniProt P03612, del68-81insG); test: 4 mM Mg2+; L-tryptophan 2.4 mM; RNA-MaP array; 100 mM Tris-HCl pH 7.5, 80 mM KCl, 4 mM MgCl2, 0.1 mg/mL BSA, 1 mM DTT, 0.01 mg/mL yeast tRNA, 0.01% Tween-20; protein 1.5 nM to 3 uM; 37 C (Table S3); conditions: chain copies: 2; label: tethered by stalled RNA polymerase
[5] = biological target: T1, MS2 coat protein, dlFG mutant; test: 4 mM Mg2+; no ligand; RNA-MaP array; 100 mM Tris-HCl pH 7.5, 80 mM KCl, 4 mM MgCl2, 0.1 mg/mL BSA, 1 mM DTT, 0.01 mg/mL yeast tRNA, 0.01% Tween-20; protein 1.5 nM to 3 uM; 37 C (Table S3); conditions: chain copies: 2; label: tethered by stalled RNA polymerase
[6] = biological target: T1, MS2 coat protein, dlFG mutant; test: 4 mM Mg2+; theophylline 2 mM; RNA-MaP array; 100 mM Tris-HCl pH 7.5, 80 mM KCl, 4 mM MgCl2, 0.1 mg/mL BSA, 1 mM DTT, 0.01 mg/mL yeast tRNA, 0.01% Tween-20; protein 1.5 nM to 3 uM; 37 C (Table S3); conditions: chain copies: 2; label: tethered by stalled RNA polymerase
[7] = biological target: T1, MS2 coat protein, dlFG mutant; test: 4 mM Mg2+; FMN 200 uM; RNA-MaP array; 100 mM Tris-HCl pH 7.5, 80 mM KCl, 4 mM MgCl2, 0.1 mg/mL BSA, 1 mM DTT, 0.01 mg/mL yeast tRNA, 0.01% Tween-20; protein 1.5 nM to 3 uM; 37 C (Table S3); conditions: chain copies: 2; label: tethered by stalled RNA polymerase

| Molecule | Kd [5] | other results |
| --- | --- | --- |
| N[C@@H](Cc1c[nH]c2ccccc12)C(=O)O |  | Kd [1]: 12.09 ± 10.50/-5.19 μM; Kd [2]: 11.59 ± 9.49/-5.00 μM; binding [3]: yes |
| B1 |  | Kd [4]: 46 nM |
| B2 | 14.9 nM |  |
| B3 | > 3000 nM |  |
| B4 | 22.8 nM |  |
| B5 | 312 nM |  |
| B6 | > 3000 nM |  |
| B7 | 23.2 nM |  |
| B8 | > 3000 nM |  |
| B9 |  | Kd [6]: 13.4 nM |
| B10 | > 3000 nM |  |
| B11 | 30.2 nM |  |
| B12 | 17 nM |  |
| B13 | > 3000 nM |  |
| UUUGGGCAGUGAUGUUGCCCCUUU (ssRNA) [Eterna 7 (K4-TR_control)] | > 3000 nM |  |
| B14 | 458 nM |  |
| B15 | > 3000 nM |  |

| Molecule | Kd [5] | other results |
| --- | --- | --- |
| B16 | > 3000 nM |  |
| B17 | > 3000 nM |  |
| B18 | > 3000 nM |  |
| B19 |  | Kd [4]: 67.5 nM |
| B20 | > 3000 nM |  |
| B21 | 600 nM |  |
| B22 | > 3000 nM |  |
| B23 | 175 nM |  |
| B24 |  | Kd [7]: 35.5 nM |
| B25 | > 3000 nM |  |
| B26 | 922 nM |  |
| B27 | > 3000 nM |  |
| B28 | 12.1 nM |  |
| B29 | 7.12 nM |  |
| B30 | > 3000 nM |  |
| B31 | > 3000 nM |  |
| B32 | 592 nM |  |
